The record followed here is patent US20130142788A1 (published 2013).

The chains are these.
T1: recombinant mature dimeric myostatin (human and mouse (mature sequences 100% …, UniProt O08689 268-376))
T1 construct: also called GDF-8; mature myostatin
T1 sequence: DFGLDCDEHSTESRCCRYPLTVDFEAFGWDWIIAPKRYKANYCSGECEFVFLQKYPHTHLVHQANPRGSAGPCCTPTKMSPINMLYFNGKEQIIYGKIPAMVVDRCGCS

B1: H9L6 (antibody, IgG1, V domains shown)
VH: QVQLVQSGAEVKKPGASVKISCKASGYSFTGYFMHWVRQAPGQGLEWIGNIYPYNSVSNYNQRFKAKATLTVDKSTSTAYMELRSLRSDDTAVYYCARRYYYGTGPADWYYDVWGQGTLVTVSS
VL: DIQMTQSPSSLSASVGDRVTITCKASQDINSYLSWFQQKPGKAPKTLIYRANRLVDGVPSKFSGSGSGQDYTLTISSLQPEDFATYYCLQSDEFPLTFGQGTKLEIKR
notes: Humanised IgG1/kappa
B2: H7L6 (antibody, IgG1, V domains shown)
VH: B1 VH with I20V, I48M, K67R, A68V, L70M
VL: B1 VL
notes: Humanised IgG1/kappa
B3: H7L5 (antibody, IgG1, V domains shown)
VH: B1 VH with I20V, I48M, K67R, A68V, L70M
VL: B1 VL with Q69T
notes: Humanised IgG1/kappa
B4: H7L4 (antibody, IgG1, V domains shown)
VH: B1 VH with I20V, I48M, K67R, A68V, L70M
VL: B1 VL with T46S
notes: Humanised IgG1/kappa
B5: H5L5 (antibody, IgG1, V domains shown)
VH: B1 VH with I20V, S56G, K67R
VL: B1 VL with Q69T
notes: Humanised IgG1/kappa
B6: H6L6 (antibody, IgG1, V domains shown)
VH: B1 VH with S56G
VL: B1 VL
notes: Humanised IgG1/kappa
B7: H4L5 (antibody, IgG1, V domains shown)
VH: B1 VH with I20V, I48M, S56G, K67R, A68V, L70M
VL: B1 VL with Q69T
notes: Humanised IgG1/kappa
B8: H5L4 (antibody, IgG1, V domains shown)
VH: B1 VH with I20V, S56G, K67R
VL: B1 VL with T46S
notes: Humanised IgG1/kappa
B9: H8L4 (antibody, IgG1, V domains shown)
VH: B1 VH with I20V, K67R
VL: B1 VL with T46S
notes: Humanised IgG1/kappa
B10: H8L6 (antibody, IgG1, V domains shown)
VH: B1 VH with I20V, K67R
VL: B1 VL
notes: Humanised IgG1/kappa
B11: H6L4 (antibody, IgG1, V domains shown)
VH: B1 VH with S56G
VL: B1 VL with T46S
notes: Humanised IgG1/kappa
B12: H3L5 (antibody, IgG1, V domains shown)
VH: B1 VH with I20V, S56G, K67R, V72T, K74T
VL: B1 VL with Q69T
notes: Humanised IgG1/kappa
B13: H9L5 (antibody, IgG1, V domains shown)
VH: B1 VH
VL: B1 VL with Q69T
notes: Humanised IgG1/kappa
B14: H4L4 (antibody, IgG1, V domains shown)
VH: B1 VH with I20V, I48M, S56G, K67R, A68V, L70M
VL: B1 VL with T46S
notes: Humanised IgG1/kappa
B15: H3L4 (antibody, IgG1, V domains shown)
VH: B1 VH with I20V, S56G, K67R, V72T, K74T
VL: B1 VL with T46S
notes: Humanised IgG1/kappa
B16: H9L4 (antibody, IgG1, V domains shown)
VH: B1 VH
VL: B1 VL with T46S
notes: Humanised IgG1/kappa
B17: H4L6 (antibody, IgG1, V domains shown)
VH: B1 VH with I20V, I48M, S56G, K67R, A68V, L70M
VL: B1 VL
notes: Humanised IgG1/kappa
B18: H5L6 (antibody, IgG1, V domains shown)
VH: B1 VH with I20V, S56G, K67R
VL: B1 VL
notes: Humanised IgG1/kappa
B19: H3L6 (antibody, IgG1, V domains shown)
VH: B1 VH with I20V, S56G, K67R, V72T, K74T
VL: B1 VL
notes: Humanised IgG1/kappa
B20: H6L5 (antibody, IgG1, V domains shown)
VH: B1 VH with S56G
VL: B1 VL with Q69T
B21: H2L2-C91S_F100G_N (antibody, V domains shown)
VH: B1 VH with I20V, I48M, S56G, K67R, A68V, L70M, V72T, K74T, Y111N
VL: B1 VL with T46S, Q69T
B22: H2L2-C91S_G99S (antibody, V domains shown)
VH: B1 VH with I20V, I48M, S56G, K67R, A68V, L70M, V72T, K74T, G103S, Y111F
VL: B1 VL with T46S, Q69T
B23: HoLo (antibody, V domains shown)
VH: B1 VH with I20V, S28T, I48M, S56G, K67R, A68V, L70M, V72T, K74T, Y111F
VL: B1 VL with T46S, Q69T, Y71F, S91C
notes: also called H0L0; copies: 2 + 2
B24: H2L2-C91S_W100E_F (antibody, V domains shown)
VH: B1 VH with I20V, I48M, S56G, K67R, A68V, L70M, V72T, K74T, W109F, Y111F
VL: B1 VL with T46S, Q69T
B25: H2L2-C91S_G100A_K (antibody, V domains shown)
VH: B1 VH with I20V, I48M, S56G, K67R, A68V, L70M, V72T, K74T, G105K, Y111F
VL: B1 VL with T46S, Q69T
B26: H2L2-C91S_Y96L (antibody, V domains shown)
VH: B1 VH with I20V, I48M, S56G, K67R, A68V, L70M, V72T, K74T, Y100L, Y111F
VL: B1 VL with T46S, Q69T
B27: H2L2-C91S_G99D (antibody, V domains shown)
VH: B1 VH with I20V, I48M, S56G, K67R, A68V, L70M, V72T, K74T, G103D, Y111F
VL: B1 VL with T46S, Q69T

Residue numbers refer to the chain shown, from its start.

The target of one experiment is T1, recombinant mature dimeric myostatin. Nature of the experiment: ActRIIb neutralisation ELISA: inhibition of 2 nM biotinylated myostatin binding to coated ActRIIb. As to the method:
Recombinant soluble ActRIIb (R&D Systems 339-RBB) was coated in wells of an ELISA plate at 1 μg/ml in carbonate buffer overnight at 4° C. Plates were blocked with PBS containing 0.1% tween 20 and 0.1% BSA and washed following standard ELISA protocols. In parallel, 2 nM biotinylated myostatin (in-house reagent, described above) was pre-incubated with a dilution series of the antibodies of Tables 21 and 22 for 30 minutes at 37° C. The biotinylated myostatin:antibody reactions were then added (50 μl/well) to the ActRIIb coated plate for 1 hour at 37° C. Standard wash procedures were followed prior to addition of 50 μl per well of a 1:200 diluted streptavidin-HRP conjugate (R&D Systems. #890803) followed by a further 37° C. incubation for 1 hour. Plates were again washed and assayed at absorbance 490 nm following substrate (R&D Systems, #DY999) and acid stop solution treatment.
(An ELISA detects its analyte on a solid surface through an enzyme-linked reagent.)
Consider B1, for which the IC50 (commonly the concentration that gives 50% inhibition) came to 0.129 nM. The same measure, in the same setting: the same measure for B2: 0.031 nM. The same measure, in the same setting: the same measure for B3: 0.028 nM; for B4: 0.038 nM. For B5, the IC50 amounted to 0.149 nM. The same measure, in the same setting: the same measure for B6: 0.32 nM; for B7: 0.336 nM; for B8: 0.211 nM. On to B9, for which the IC50 is 0.079 nM. Same read-out and setting: the same measure for B10: 0.101 nM; for B11: 0.225 nM. Same read-out and setting: the value for B12 was 1.08 nM. Same read-out and setting: the value for B13 was 0.14 nM. With B14, the IC50 is 0.395 nM. For B15, the concentration for half-maximal inhibition (IC50) was 1.31 nM. On to B16, for which the IC50 is 0.141 nM. For the molecule B17, the IC50 was 0.273 nM. Regarding B18, the IC50 stood at 0.166 nM. Still for that read-out and setting: the same measure for B19: 3.04 nM.

The target is the same in another experiment. Nature of the experiment: cell-based or functional assay.
As to B3, the “IC50, myostatin responsive reporter gene neutralisation assay (A204)” value (from here on “IC50 … (A204)”) came to 6.3 nM.

Consider B5, for which the “IC50 … (A204)” value was 6.1 nM.

For B7, the “IC50 … (A204)” value amounted to 6.5 nM.

As for B13, the “IC50 … (A204)” value turned out to be 4 nM. Same read-out and setting: the value for B14 was 7.9 nM; that for B20 was 6 nM. Same read-out and setting: the same measure for B17: 6.9 nM.

Another experiment has the same target. The experiment in a line: myostatin capture ELISA: polyclonal anti-myostatin coated, myostatin 1 ug/ml captured, antibody titrated, anti-human kappa-HRP, OPD, A490. As to the method:
The eleven affinity purified CDRH3 variants were also analyzed for binding activity in the myostatin capture ELISA.
(§1) A 96-well ELISA plate was coated at 4° C. overnight with 2.5 μg/ml polyclonal Antibody to Myostatin (R&D Systems AF788). This plate was then washed 3-times in wash buffer (PBS, 0.1% Tween-20) and blocked for 1 hour at room temperature with block solution (PBS, 0.1% Tween-20+1% bovine serum albumin [BSA]). Then, myostatin was added at 1 μg/ml in block buffer during 1 hour followed by 3-times in wash buffer. Antibodies were then titrated out to a suitable concentration range (approximately 10 to 0.01 μg/ml), added to the plate and incubated for 1 hour at room temperature. The plate was then washed 3-times in wash buffer. An anti-human kappa light chain HRP-conjugated antibody (Sigma A7164, used according to the manufacturer's instructions) was used to detect binding of humanized or chimeric antibodies, such as 10B3 chimera (HcLc) or H0L0. The plate was then washed 3-times in wash buffer and developed with an OPD substrate (according to the manufacturer's instructions) and read at 490 nm on a plate reader.
In the case of B21, the binding result is reported as “binds”. Same read-out and setting: the value for B22 was “binds”; that for B23 was “binds”; that for B24 was “binds”. Still for that read-out and setting: the same measure for B25: “binds”.

The target is the same in a further experiment. The experiment in a line: myostatin competition ELISA, biotinylated myostatin on streptavidin, competitor 10B3. As to the method:
The protocol set out in 5.7 was used but the plates were initially coated at 4° C. overnight with 5 μg/ml of streptavidin. Biotinylated myostatin was added at 0.3 μg/ml block buffer during 1 hour followed by 3-times in wash buffer. 10B3 (final concentration of 0.2 μg/ml) was added into each well and mixed with antibodies titrated out to a suitable concentration range (approximately 10 to 0.01 μg/ml). An anti-mouse HRP-conjugated antibody (DAKO P0260, used according to the manufacturer's instructions) was used to detect binding of the 10B3 antibody.
For B26, the “rank among the five most potent, top (1) to bottom (5)” value was 5 rank.

For the next experiment the target is unchanged. The experiment in a line: myostatin competition ELISA, polyclonal Ab capture of myostatin, competitor 10B3. As to the method: as §1
The protocol set out in 5.7 was used with the addition of 10B3 (final concentration of […]) to each well and mixed with the antibodies titrated out to a suitable concentration range (approximately 10 to 0.01 μg/ml). An anti-mouse HRP-conjugated antibody (DAKO P0260, used according to the manufacturer's instructions) was used to detect binding of the 10B3 antibody.
On to B27, for which the “rank among the five most potent, top (1) to bottom (5)” value is 5 rank.
